# Where “and” joins values, the source holds several entries; their conditions need not be identical. Identical values can stand only once.
# Experiments:
# [1] = molecular target: T1, nucleosome core particle reconstituted from recombinant X. laevis histones and a 168 bp fragment of 601-DNA (X. laevis); experiment: native gel or EMSA; 50 fmol radiolabeled mononucleosomes with increasing amounts of CHD4 constructs, 15 min on ice, 20 Tris-HCl pH 8, 200 mM NaCl, 10% sucrose; 5% native polyacrylamide gel, autoradiography
# [2] = molecular target: T2, histone H3 peptide 1-21 dimethylated on K9, biotinylated, P68431; experiment: SPR; biotinylated histone H3 peptides immobilised on streptavidin sensor, CHD4 constructs injected at 100 μl/min; 25 °C; 20 mM Tris pH 7.5, 200 mM NaCl, 0.05% polysorbate 20; Kd from the steady-state response, sensorgrams when appropriate globally fitted; three repeats
# [3] = molecular target: T3, histone H3 peptide 1-21 monomethylated on K9, biotinylated, P68431; experiment: as above
# [4] = molecular target: T4, histone H3 peptide 1-21 trimethylated on K9, biotinylated, P68431; experiment: as above
# [5] = molecular target: histone H3 peptide 1-21, unmodified, biotinylated, P68431; experiment: as above
# [6] = molecular target: T1, nucleosome core particle reconstituted …
# [7] = molecular target: T2, histone H3 peptide 1-21 dimethylated on …; experiment: SPR; as a1 but tPHDtCHD/ATPase injected with added ATP
# [8] = molecular target: T3, histone H3 peptide 1-21 monomethylated …; experiment: as above
# [9] = molecular target: T4, histone H3 peptide 1-21 trimethylated …; experiment: as above
# [10] = molecular target: histone H3 peptide 1-21, unmodified, biotinylated, P68431; experiment: as above
concentration necessary for binding [1],Kd [2],koff [2],kon [2],Kd [3],Kd [4],koff [4],kon [4],Kd [5],koff [5],kon [5],Binder,other results
10 to 20 µM,63 µM and 51 µM,0.2 s⁻¹,3900 M⁻¹ s⁻¹,42 µM,70 µM and 48 µM,0.17 s⁻¹,3500 M⁻¹ s⁻¹,190 µM and 188 µM,0.49 s⁻¹,2600 M⁻¹ s⁻¹,"CHD4 tandem plant homeodomain zinc fingers (tPHD) construct (domain or fragment, modifications not checked) YETDHQDYCEVCQQGGEIILCDTCPRAYHMVCLDPDMEKAPEGKWSCPHCEKEGIQWEAKEDNSEGEEILEEVGGDLEEEDDHHMEFCRVCKDGGELLCCDTCPSSYHIHCLNPPLPEIPNGEWLCPRCTCPALKGK",–
0.5 µM,8.6 µM,0.31 s⁻¹,–,24 µM,21 µM and 10 µM,–,33000 M⁻¹ s⁻¹,14 µM and 19 µM,0.68 s⁻¹,50000 M⁻¹ s⁻¹,"CHD4 tPHDtCHD construct (tandem PHD and tandem chromodomains) (domain or fragment, modifications not checked) YETDHQDYCEVCQQGGEIILCDTCPRAYHMVCLDPDMEKAPEGKWSCPHCEKEGIQWEAKEDNSEGEEILEEVGGDLEEEDDHHMEFCRVCKDGGELLCCDTCPSSYHIHCLNPPLPEIPNGEWLCPRCTCPALKGKVQKILIWKWGQPPSPTPVPRPPDADPNTPSPKPLEGRPERQFFVKWQGMSYWHCSWVSELQLELHCQVMFRNYQRKNDMDEPPSGDFGGDEEKSRKRKNKDPKFAEMEERFYRYGIKPEWMMIHRILNHSVDKKGHVHYLIKWRDLPYDQASWESEDVEIQDYDLFKQSYWNHRELMRGEEGRPGKKLKKVKLRKL",–
0.06 µM,4.7 µM,0.0056 s⁻¹,1200 M⁻¹ s⁻¹,2.9 µM,2.6 µM,0.025 s⁻¹,1000 M⁻¹ s⁻¹,4.1 µM,0.0135 s⁻¹,3300 M⁻¹ s⁻¹,"CHD4 tPHDtCHD/ATPase construct (minimal construct containing all three domains) (domain or fragment, modifications not checked) YETDHQDYCEVCQQGGEIILCDTCPRAYHMVCLDPDMEKAPEGKWSCPHCEKEGIQWEAKEDNSEGEEILEEVGGDLEEEDDHHMEFCRVCKDGGELLCCDTCPSSYHIHCLNPPLPEIPNGEWLCPRCTCPALKGKVQKILIWKWGQPPSPTPVPRPPDADPNTPSPKPLEGRPERQFFVKWQGMSYWHCSWVSELQLELHCQVMFRNYQRKNDMDEPPSGDFGGDEEKSRKRKNKDPKFAEMEERFYRYGIKPEWMMIHRILNHSVDKKGHVHYLIKWRDLPYDQASWESEDVEIQDYDLFKQSYWNHRELMRGEEGRPGKKLKKVKLRKLERPPETPTVDPTVKYERQPEYLDATGGTLHPYQMEGLNWLRFSWAQGTDTILADEMGLGKTVQTAVFLYSLYKEGHSKGPFLVSAPLSTIINWEREFEMWAPDMYVVTYVGDKDSRAIIRENEFSFEDNAIRGGKKASRMKKEASVKFHVLLTSYELITIDMAILGSIDWACLIVDEAHRLKNNQSKFFRVLNGYSLQHKLLLTGTPLQNNLEELFHLLNFLTPERFHNLEGFLEEFADIAKEDQIKKLHDMLGPHMLRRLKADVFKNMPSKTELIVRVELSPMQKKYYKYILTRNFEALNARGGGNQVSLLNVVMDLKKCCNHPYLFPVAAMEAPKMPNGMYDGSALIRASGKLLLLQKMLKNLKEGGHRVLIFSQMTKMLDLLEDFLEHEGYKYERIDGGITGNMRQEAIDRFNAPGAQQFCFLLSTRAGGLGINLATADTVIIYDSDWNPHNDIQAFSRAHRIGQNKKVMIYRFVTRASVEERITQVAKKKMMLTHLVVRPGL","ATPase activity (kcat, phosphate release assay) with 0.32 pmol of mono-nucleosome particles; about 6-fold stimulation [6]: 0.0615 s⁻¹; koff [3]: 0.026 s⁻¹; kon [3]: 900 M⁻¹ s⁻¹; Kd [7]: 1.7 µM; koff [7]: 0.0073 s⁻¹; kon [7]: 4300 M⁻¹ s⁻¹; Kd [8]: 6.9 µM; Kd [9]: 0.5 µM; koff [9]: 0.018 s⁻¹; kon [9]: 36000 M⁻¹ s⁻¹; Kd [10]: 1.4 µM; koff [10]: 0.0265 s⁻¹; kon [10]: 18900 M⁻¹ s⁻¹"

# From article PMC3476528
